Assay results reported in PMC12017989, “Carbohydrate deacetylase, a key enzyme in oxidative chitin degradation, is evolutionarily linked to amino acid deacetylase [drawing 1]” (The Journal of Biological Chemistry, 2025).
Residue numbers refer to the chain shown, from its start. Names and notes keep the numbering of the source.

T1: PpOngB (Pseudoalteromonas prydzensis, UniProt Z9WEX2YQL1, D368A)
T1 construct: pET-22b, His tag; E. coli BL21(DE3); residues 7-482 seen in crystal; one Zn
T1 sequence (Z9WEX2YQL1 1-489 D368A): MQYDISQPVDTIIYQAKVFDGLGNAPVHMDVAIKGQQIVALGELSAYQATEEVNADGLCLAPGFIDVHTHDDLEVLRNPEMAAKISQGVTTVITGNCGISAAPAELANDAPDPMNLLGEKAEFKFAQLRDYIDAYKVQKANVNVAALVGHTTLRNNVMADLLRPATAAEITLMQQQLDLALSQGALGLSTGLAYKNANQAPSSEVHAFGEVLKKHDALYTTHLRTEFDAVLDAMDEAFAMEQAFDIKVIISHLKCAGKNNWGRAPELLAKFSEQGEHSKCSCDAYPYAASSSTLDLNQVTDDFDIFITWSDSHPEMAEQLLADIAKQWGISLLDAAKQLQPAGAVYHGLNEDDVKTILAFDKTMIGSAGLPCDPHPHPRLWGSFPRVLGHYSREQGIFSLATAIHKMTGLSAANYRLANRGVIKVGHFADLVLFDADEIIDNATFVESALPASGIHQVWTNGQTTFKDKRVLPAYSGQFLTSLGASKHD

T2: AfDam (Alcaligenes faecalis, UniProt Q9AGH8)
T2 sequence (Q9AGH8 1-484): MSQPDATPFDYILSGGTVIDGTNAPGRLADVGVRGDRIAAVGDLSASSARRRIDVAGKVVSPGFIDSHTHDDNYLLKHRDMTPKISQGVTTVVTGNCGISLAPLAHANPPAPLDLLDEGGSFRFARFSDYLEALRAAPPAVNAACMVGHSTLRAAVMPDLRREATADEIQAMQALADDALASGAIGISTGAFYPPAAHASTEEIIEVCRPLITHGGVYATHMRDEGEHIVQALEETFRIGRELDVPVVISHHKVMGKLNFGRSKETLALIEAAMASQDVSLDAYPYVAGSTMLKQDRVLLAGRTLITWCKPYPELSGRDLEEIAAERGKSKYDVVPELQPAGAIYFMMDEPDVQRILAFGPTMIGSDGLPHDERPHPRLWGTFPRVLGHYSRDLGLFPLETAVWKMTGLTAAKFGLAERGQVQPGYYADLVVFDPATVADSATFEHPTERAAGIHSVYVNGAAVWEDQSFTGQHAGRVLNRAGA

B1: PpOngB (Pseudoalteromonas prydzensis) (protein)
chain: T1 sequence (Z9WEX2YQL1 1-489 D368A) with A368D
notes: pET-22b, His tag; E. coli BL21(DE3); residues 7-482 seen in crystal; one Zn
B2: PpOngB (Pseudoalteromonas prydzensis; Q298N) (protein)
chain: T1 sequence (Z9WEX2YQL1 1-489 D368A) with Q298N, A368D
notes: as for B1
B3: PpOngB (Pseudoalteromonas prydzensis; S292T) (protein)
chain: T1 sequence (Z9WEX2YQL1 1-489 D368A) with S292T, A368D
notes: as for B1
B4: PpOngB (Pseudoalteromonas prydzensis; Q298A) (protein)
chain: T1 sequence (Z9WEX2YQL1 1-489 D368A) with Q298A, A368D
notes: as for B1
B5: PfOngB (Pseudoalteromonas maricaloris) (protein)
chain: MLSSSPYVDTLIQGATVYFEPDSEAQVVDVAISKDKIVALGNCSHLQALQCIDATGLVLAPGFIDVHTHDDLEVLRGPYMLSKVSQGVTTVIAGNCGISAVPYCADQAPLDPINLLGEQSEFAYRELQDYQHAFSKAAPSVNLATLVGHTTLRAQVMTDLSQAANAQELEQMKTLLHQAMAQGAIGFSTGLAYYNAKGASQAEVNALAEVVTPFDGIYTTHLRTEFQGVIRAMDEAFATAEHAKLPLVISHIKCAGRENWGRAPEVLAHFELHRKTHPVSCDCYPYAASSSTLDLNQVTEETDIFITWSESHPELAQQSLANIATQWQVSQRDAAKRLQPAGAVYHCMLEDDVQRFVSYEHSMVGSDGLPCDPHPHPRLWGTFPRVLGHYCREQQSLPLALAIHKMTALPAARFKLRQRGNIQIGYFADLVLFDPNRVLDQASYSNPKQLASGIVKVWVNGKLSYVEGANADTIVDFGRAGRFLTRQN
notes: recombinant, cloned like PpOngB (pET-22b, His tag)

Legend:
[1] = tested on: CC(=O)N[C@@H](C(=O)O)[C@@H](O)[C@H](O)[C@H](O)CO; assay: purified protein; details: 10 mM Bis-Tris pH 7.5, 30 °C, 2-120 mM substrate, Zn enzyme
Text: ninhydrin assay of primary amine, Michaelis-Menten fit on PaOngB

[2] = biological target: T1, PpOngB; assay: X-ray crystal structure, […] Å; assay type: binding; details: inactive mutant cocrystallised; active site, open-chain aldonic acid coordinating zinc
[3] = biological target: T3, BbDam (Bordetella bronchiseptica, UniProt A0A0H3LXD5); assay: deacetylase activity assay; assay type: biochemical; details: 10 mM substrate, 50 mM Hepes pH 8.0, 30 °C
T3 construct: gene BB3285

[4] = biological target: T2, AfDam; assay: deacetylase activity assay; assay type: biochemical; details: 10 mM substrate, 10 mM Bis-Tris pH 7.0, 40 °C
[5] = substrate: CC(=O)N[C@@H](C(=O)O)[C@@H](O)[C@H](O)[C@H](O)CO; assay: ninhydrin assay of primary amine, Michaelis-Menten fit; assay type: biochemical, Pseudoalteromonas prydzensis; details: 10 mM Bis-Tris pH 7.5, 30 °C, 2-120 mM substrate, Zn enzyme
Text: ninhydrin assay of primary amine, Michaelis-Menten fit on PpOngB

[6] = substrate: CC(=O)N[C@@H](C(=O)O)[C@@H](O)[C@H](O)[C@H](O)CO; assay: as above; assay type: biochemical, Pseudoalteromonas maricaloris; details: 10 mM Bis-Tris pH 7.5, 30 °C, 2-120 mM substrate, Zn enzyme
Text: ninhydrin assay of primary amine, Michaelis-Menten fit on PfOngB

T3 sequence (A0A0H3LXD5 entry or part of it): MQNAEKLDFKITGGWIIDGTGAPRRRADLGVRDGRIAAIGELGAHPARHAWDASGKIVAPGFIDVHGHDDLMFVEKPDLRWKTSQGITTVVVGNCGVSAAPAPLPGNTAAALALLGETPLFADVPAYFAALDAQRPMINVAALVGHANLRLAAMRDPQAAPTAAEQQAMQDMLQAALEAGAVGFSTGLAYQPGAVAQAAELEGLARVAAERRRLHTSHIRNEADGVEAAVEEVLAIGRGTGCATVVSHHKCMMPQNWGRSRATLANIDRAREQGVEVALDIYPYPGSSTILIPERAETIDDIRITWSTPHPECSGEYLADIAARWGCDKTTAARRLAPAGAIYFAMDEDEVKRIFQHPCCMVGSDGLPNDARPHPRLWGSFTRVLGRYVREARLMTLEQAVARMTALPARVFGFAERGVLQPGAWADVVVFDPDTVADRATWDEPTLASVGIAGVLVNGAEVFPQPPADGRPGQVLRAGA

Molecule | Km [5] [mM] | Vmax [5] [µmol/min/mg] | kcat [5] [s⁻¹] | further results
PaOngB (Pseudoalteromonas arabiensis) |  |  |  | Km [1]: 9.1 ± 0.8 mM; Vmax [1]: 6.3 µmol/min/mg; kcat [1]: 5.5 ± 0.3 s⁻¹; kcat/Km [1]: 600 M⁻¹ s⁻¹
CC(=O)N[C@@H](C(=O)O)[C@@H](O)[C@H](O)[C@H](O)CO [GlcNAc1A, 2-(acetylamino)-2-deoxy-D-gluconic acid] |  |  |  | X-ray crystal structure, 2.29 Å [2]: crystal structure of PpOngB in complex with GlcNAc1A (the PpOngB-GlcNAc1A complex)
CC(=O)N[C@H](CCC(=O)O)C(=O)O [N-acetyl-D-glutamate] |  |  |  | deacetylase activity assay [3]: enzymatic activities of BbDam and its mutants
CSCC[C@@H](NC(C)=O)C(=O)O [N-acetyl-D-methionine] |  |  |  | deacetylase activity assay [4]: enzymatic activities of AfDam and its mutants
B1 | 9.8 ± 0.8 | 17.4 | 15.4 ± 1.3 | kcat/Km [5]: 1600 M⁻¹ s⁻¹
B2 | 53.4 ± 2.5 | 9.4 | 8.3 ± 0.3 | 
B3 | 54.2 ± 1.8 | 1.3 | 1.1 ± 0.1 | 
B4 | 59.7 ± 5.0 | 7.7 | 6.8 ± 0.6 | 
B5 |  |  |  | Km [6]: 17.2 ± 1.0 mM; Vmax [6]: 13.4 µmol/min/mg; kcat [6]: 11.9 ± 0.7 s⁻¹; kcat/Km [6]: 700 M⁻¹ s⁻¹
